Results taken from the supplement of paper PMC7877785.
± gives the uncertainty stated by the source.

Test: self-splicing fitness, log relative to wild type (ln ratio); higher = more splicing; Tetrahymena group I intron in knt gene, E. coli kanamycin selection, DiMSum; sequences stand for … in CUCUCU…GGAGGGAAAAGUUAUCAGGCAUGCACCUGGUAGCUAGUCUUUAAACCAAUAGAUUGCAUCGGUUUAAAAGGCAAGACCGUCAAAUUGCGGGAAAGGGGUCAACAGCCGUUCAGUACCAAGUCUCAGGGGAAACUUUGAGAUGGCCUUGCAAAGGGUAUGGUAAUAAGCUGACGGACAUGGUCCUAACCACGCAGCCAAGUCCUAAGUCAACAGAUCUUCUGUUGAUAUGGAUGCAGUUCACAGACUAAAUGUCGGUCGGGGAAGAUGUAUUCUUCUCAUAAGAUAUAGUCGGACCUCUCCUUAAUGGGAGCUAGCGGAUGAAGUGAUGCAACACUGGAGCCGCUGGGAACUAAUUUGUAUGCGAAAGUAUAUUGAUUAGUUUUGGAGUACUCGUGGUCG
How it was run: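 Library with all eight P1ex-region intron nucleotides randomised, intron inside the knt kanamycin-resistance gene on pET-22b(+), in E. coli BL21(DE3). Cells grew overnight at 37°C or 30°C on LB agar with or without 25 μg/mL kanamycin (plus 100 μg/mL carbenicillin, 50 μM IPTG, 0.2% rhamnose), in six replicate transformations. Pooled colonies were amplicon-sequenced on Illumina HiSeq 2500. DiMSum fitness is the error-weighted combination of wild-type-normalised replicate fold changes, kanamycin versus none.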

Sequence | self-splicing fitness (ln) (37 °C) | self-splicing fitness (ln) (30 °C)
UAAGAGCAAUAUUACGCUGA | -1.15 ± 0.29 | 
GGUGAGCAAUAUUACGCGUG | -1.52 ± 0.21 | -1.22 ± 0.16
AGAAAGCAAUAUUACGAAGC | -2.91 ± 0.48 | -3.61 ± 0.47
GAAGAGCAAUAUUACGAGGG | -3.02 ± 0.28 | -3.54 ± 0.2
AGUUAGCAAUAUUACGAACC | -0.401 ± 0.17 | -1 ± 0.15
GACUAGCAAUAUUACGUCUC | -0.484 ± 0.16 | -1.46 ± 0.16
GGUAAGCAAUAUUACGUCAC | -2.04 ± 0.23 | -2.85 ± 0.24
AUCGAGCAAUAUUACGACUC | -1.98 ± 0.27 | -3.4 ± 0.3
CGUUAGCAAUAUUACGUGGU | -2.6 ± 0.28 | -4.09 ± 0.26
GCCGAGCAAUAUUACGGGAC | -1.12 ± 0.15 | -0.849 ± 0.11
CAGAAGCAAUAUUACGAUUU | -1.16 ± 0.11 | -2.06 ± 0.096
ACGCAGCAAUAUUACGUUAU | -2.12 ± 0.15 | -3.13 ± 0.12
GCACAGCAAUAUUACGCACA | -0.164 ± 0.1 | -1.09 ± 0.092
UGCUAGCAAUAUUACGGCGC | 1.38 ± 0.48 | -3.41 ± 0.37
AACAAGCAAUAUUACGGCAU | -0.0731 ± 0.073 | -0.11 ± 0.057
AGCGAGCAAUAUUACGUGGA | -2.81 ± 0.16 | -2.95 ± 0.22
AGUUAGCAAUAUUACGUCCC | -0.452 ± 0.2 | -0.148 ± 0.21
CGGAAGCAAUAUUACGAUCG | -1.07 ± 0.14 | -1.86 ± 0.1
UUCGAGCAAUAUUACGAGUU | -0.549 ± 0.17 | -1.62 ± 0.18

Sequence | self-splicing fitness (ln) (37 °C) | self-splicing fitness (ln) (30 °C)
ACACAGCAAUAUUACGUGUG | -1.44 ± 0.065 | -3.55 ± 0.1
AGGCAGCAAUAUUACGAAGC | -2.73 ± 0.33 | -4.02 ± 0.42
CCGGAGCAAUAUUACGUAAU | -3.36 ± 0.23 | -3.95 ± 0.15
GUGCAGCAAUAUUACGCGGU | -2.94 ± 0.32 | -2.93 ± 0.19
GACCAGCAAUAUUACGAACU | -0.0101 ± 0.082 | 0.271 ± 0.062
CCACAGCAAUAUUACGAUGU | -1.89 ± 0.15 | -4.02 ± 0.24
ACGUAGCAAUAUUACGCACG | -1.98 ± 0.19 | -2.31 ± 0.2
ACUCAGCAAUAUUACGCCUG | -1.5 ± 0.2 | -3.39 ± 0.22
UAGCAGCAAUAUUACGGGUC | -3.65 ± 0.42 | 
GUAUAGCAAUAUUACGACAU | 0.0814 ± 0.033 | -0.233 ± 0.014
CGCCAGCAAUAUUACGUUUU | -2.76 ± 0.16 | -3.8 ± 0.15
GACUAGCAAUAUUACGCGAC | -0.817 ± 0.27 | -1.59 ± 0.28
CGAUAGCAAUAUUACGUGAA | -2.16 ± 0.16 | -4.38 ± 0.22
AUCCAGCAAUAUUACGCCUA | 0.121 ± 0.13 | -1.29 ± 0.19
UUUCAGCAAUAUUACGAGUG | -0.205 ± 0.11 | -0.489 ± 0.094
AAUUAGCAAUAUUACGACAG | -0.992 ± 0.25 | -1.72 ± 0.32
UGUCAGCAAUAUUACGGAGC | -2.89 ± 0.43 | 
AGUGAGCAAUAUUACGCCGG | -1.81 ± 0.38 | -2.67 ± 0.26
GCGCAGCAAUAUUACGGGCA | -1.24 ± 0.11 | -2.9 ± 0.14
